In this data set the test system is Escherichia coli TOP10. Kind of data set: shrunken log2 fold change of peptide-encoding DNA abundance (4.5 h post-induction vs induction); higher = less antimicrobial activity (less host growth inhibition). Conditions: time post-induction: 4.5 h; library: site-saturation at positions 5, 18, 19, 20.

Experimental findings from the supplement of paper PMC9112550, “Optimization of the antimicrobial peptide Bac7 by deep mutational scanning” (BMC Biology, 2022) are described below.
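Note: peptides expressed intracellularly from a pBAD plasmid library in pooled LB shake-flask culture, induced with 0.3% L-arabinose, DNA abundance read by NGS, three biological replicates, DESeq2 with apeglm shrinkage.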

RRIRIRPPRLPRPRPRPYFIPRP: the “shrunken log2 fold change” value was -1.14. As for RRIRCRPPRLPRPRPRPISTPRP, the “shrunken log2 fold change” value was -0.245.

For the sequence RRIRGRPPRLPRPRPRPAKSPRP, the “shrunken log2 fold change” value worked out at 0.492.

As to RRIRQRPPRLPRPRPRPPHKPRP, the “shrunken log2 fold change” value was 1.25. The same measure for RRIRMRPPRLPRPRPRPRGCPRP: 1.08. The figure for RRIRIRPPRLPRPRPRPASWPRP is 0.0913.

For the sequence RRIRHRPPRLPRPRPRPCKAPRP, the “shrunken log2 fold change” value was -0.0317.

Take RRIRHRPPRLPRPRPRPNHVPRP: the “shrunken log2 fold change” value is -0.0341.

For RRIRIRPPRLPRPRPRPHQSPRP, the “shrunken log2 fold change” value was -0.406.

Take RRIRIRPPRLPRPRPRPEGIPRP: the “shrunken log2 fold change” value is -0.0831. Take RRIRFRPPRLPRPRPRPHHGPRP: the “shrunken log2 fold change” value came out at 0.000407. Consider RRIRNRPPRLPRPRPRPPYIPRP, for which the “shrunken log2 fold change” value is -0.335.

For the sequence RRIRERPPRLPRPRPRPNIHPRP, the “shrunken log2 fold change” value was -0.637.

Consider RRIRVRPPRLPRPRPRPGWAPRP, for which the “shrunken log2 fold change” value came out at 0.228. The figure for RRIRTRPPRLPRPRPRPHSYPRP is -1.23; for RRIRARPPRLPRPRPRPYKVPRP it is -0.00867; for RRIRIRPPRLPRPRPRPVDGPRP it is -0.169. Regarding RRIRSRPPRLPRPRPRPFFGPRP, the “shrunken log2 fold change” value amounted to 0.148. Consider RRIRERPPRLPRPRPRPGTMPRP, for which the “shrunken log2 fold change” value is 0.0721.

Take RRIRARPPRLPRPRPRPMNCPRP: the “shrunken log2 fold change” value was -0.116. The figure for RRIRQRPPRLPRPRPRPRRCPRP is 0.271; for RRIRVRPPRLPRPRPRPECCPRP it is 0.0234. The figure for RRIRIRPPRLPRPRPRPLRKPRP is 0.00781; for RRIRTRPPRLPRPRPRPHNLPRP it is -0.274; for RRIRERPPRLPRPRPRPVFKPRP it is -0.228. As for RRIRQRPPRLPRPRPRPSEMPRP, the “shrunken log2 fold change” value worked out at 0.0648.

Regarding RRIRKRPPRLPRPRPRPAAYPRP, the “shrunken log2 fold change” value amounted to 0.361.

As to RRIRERPPRLPRPRPRPYQMPRP, the “shrunken log2 fold change” value is -0.448. As to RRIRIRPPRLPRPRPRPTGYPRP, the “shrunken log2 fold change” value was -0.73. The figure for RRIRDRPPRLPRPRPRPWACPRP is 0.0329; for RRIRYRPPRLPRPRPRPVNGPRP it is -0.338.

Regarding RRIRHRPPRLPRPRPRPCMHPRP, the “shrunken log2 fold change” value is -0.38. The same measure for RRIRPRPPRLPRPRPRPVFYPRP: -0.316; for RRIRCRPPRLPRPRPRPQYHPRP: -0.425.

Turning to RRIRARPPRLPRPRPRPTTAPRP, the “shrunken log2 fold change” value was determined as 0.514.

Consider RRIRERPPRLPRPRPRPAMNPRP, for which the “shrunken log2 fold change” value was -0.28. On to RRIRMRPPRLPRPRPRPIRMPRP, for which the “shrunken log2 fold change” value was determined as 0.213. The same measure for RRIRFRPPRLPRPRPRPCSCPRP: -0.879. The same measure for RRIRKRPPRLPRPRPRPLRRPRP: 0.689; for RRIRSRPPRLPRPRPRPHEYPRP: 0.00184; for RRIRCRPPRLPRPRPRPMARPRP: 0.352. The figure for RRIRYRPPRLPRPRPRPSSVPRP is -0.425.

Consider RRIRQRPPRLPRPRPRPTYEPRP, for which the “shrunken log2 fold change” value is -0.0761. Consider RRIRKRPPRLPRPRPRPNQMPRP, for which the “shrunken log2 fold change” value was 0.234. For the sequence RRIRIRPPRLPRPRPRPKSVPRP, the “shrunken log2 fold change” value was -0.0925.

With RRIRLRPPRLPRPRPRPTYLPRP, the “shrunken log2 fold change” value was -0.0138. As to RRIRNRPPRLPRPRPRPTHTPRP, the “shrunken log2 fold change” value is -0.191. The figure for RRIRRRPPRLPRPRPRPFVDPRP is 0.243; for RRIRFRPPRLPRPRPRPDNPPRP it is -0.0747. Consider RRIRARPPRLPRPRPRPRMIPRP, for which the “shrunken log2 fold change” value came to 0.219. For RRIRNRPPRLPRPRPRPFDIPRP, the “shrunken log2 fold change” value is -0.701. The figure for RRIRNRPPRLPRPRPRPWLWPRP is 0.165; for RRIRYRPPRLPRPRPRPKGAPRP it is 0.194.

With RRIRCRPPRLPRPRPRPKQDPRP, the “shrunken log2 fold change” value was determined as 0.0895.

In the case of RRIRWRPPRLPRPRPRPLDHPRP, the “shrunken log2 fold change” value amounted to 0.165. The figure for RRIRNRPPRLPRPRPRPWLTPRP is -0.0905; for RRIRHRPPRLPRPRPRPHHVPRP it is -0.35. RRIRFRPPRLPRPRPRPFKFPRP: the “shrunken log2 fold change” value was -0.107.

RRIRCRPPRLPRPRPRPQVYPRP: the “shrunken log2 fold change” value is -0.313. The figure for RRIRQRPPRLPRPRPRPSFSPRP is -0.443.

RRIRERPPRLPRPRPRPWDKPRP: the “shrunken log2 fold change” value was -0.00884.

For the sequence RRIRHRPPRLPRPRPRPTCYPRP, the “shrunken log2 fold change” value is -0.272. The same measure for RRIRNRPPRLPRPRPRPMVCPRP: -0.018; for RRIRNRPPRLPRPRPRPKYFPRP: -0.0727. In the case of RRIRYRPPRLPRPRPRPPSTPRP, the “shrunken log2 fold change” value was -0.294. The same measure for RRIRIRPPRLPRPRPRPRYYPRP: -0.372; for RRIRHRPPRLPRPRPRPGRDPRP: 0.135. Regarding RRIRQRPPRLPRPRPRPIPTPRP, the “shrunken log2 fold change” value is -0.0272. RRIRQRPPRLPRPRPRPHTAPRP: the “shrunken log2 fold change” value is -0.926. The same measure for RRIRTRPPRLPRPRPRPHMQPRP: -0.249. As to RRIRKRPPRLPRPRPRPIFKPRP, the “shrunken log2 fold change” value was 0.307. RRIRIRPPRLPRPRPRPTWKPRP: the “shrunken log2 fold change” value was -0.0541. The same measure for RRIRWRPPRLPRPRPRPVVAPRP: 0.28. The same measure for RRIRGRPPRLPRPRPRPMLAPRP: 1.9; for RRIRMRPPRLPRPRPRPASIPRP: -0.015. Take RRIRTRPPRLPRPRPRPFSVPRP: the “shrunken log2 fold change” value stood at 0.0234.

With RRIRHRPPRLPRPRPRPTSCPRP, the “shrunken log2 fold change” value is -0.125. Take RRIRFRPPRLPRPRPRPRWCPRP: the “shrunken log2 fold change” value is 0.14. The figure for RRIRWRPPRLPRPRPRPSSCPRP is -0.0941.

As for RRIRVRPPRLPRPRPRPERYPRP, the “shrunken log2 fold change” value was 0.133. As for RRIRARPPRLPRPRPRPHDCPRP, the “shrunken log2 fold change” value is -0.16. For the sequence RRIRARPPRLPRPRPRPRFNPRP, the “shrunken log2 fold change” value was 0.269. RRIRSRPPRLPRPRPRPPTPPRP: the “shrunken log2 fold change” value was 0.63. In the case of RRIRCRPPRLPRPRPRPVALPRP, the “shrunken log2 fold change” value is 0.0824. The figure for RRIRIRPPRLPRPRPRPSNGPRP is 0.0107; for RRIRTRPPRLPRPRPRPKAIPRP it is 0.00211; for RRIRERPPRLPRPRPRPRTEPRP it is -0.0166. Consider RRIRYRPPRLPRPRPRPGLRPRP, for which the “shrunken log2 fold change” value was determined as 0.0396. The figure for RRIRKRPPRLPRPRPRPWVSPRP is 0.345; for RRIRRRPPRLPRPRPRPAAMPRP it is 0.516. The figure for RRIRRRPPRLPRPRPRPYIKPRP is -0.509. As to RRIRVRPPRLPRPRPRPRNWPRP, the “shrunken log2 fold change” value is 0.4. As to RRIRWRPPRLPRPRPRPVYGPRP, the “shrunken log2 fold change” value is -0.083.

As to RRIRERPPRLPRPRPRPIRMPRP, the “shrunken log2 fold change” value is -0.00149. Turning to RRIRIRPPRLPRPRPRPTRIPRP, the “shrunken log2 fold change” value turned out to be 0.0411. In the case of RRIRARPPRLPRPRPRPIKCPRP, the “shrunken log2 fold change” value was -0.249. The same measure for RRIRCRPPRLPRPRPRPCNMPRP: -0.502; for RRIRYRPPRLPRPRPRPELVPRP: 0.25. For the sequence RRIRYRPPRLPRPRPRPWVLPRP, the “shrunken log2 fold change” value was -0.223. The same measure for RRIRHRPPRLPRPRPRPKIFPRP: -0.0798; for RRIRPRPPRLPRPRPRPGIIPRP: -0.0894. The same measure for RRIRRRPPRLPRPRPRPEVYPRP: 0.0769. For RRIRSRPPRLPRPRPRPYKLPRP, the “shrunken log2 fold change” value was -0.399. The same measure for RRIRYRPPRLPRPRPRPAPWPRP: -0.0627; for RRIRTRPPRLPRPRPRPCSCPRP: -0.0701. The same measure for RRIRNRPPRLPRPRPRPNGAPRP: -0.0902. The figure for RRIRARPPRLPRPRPRPFWVPRP is -0.0841; for RRIRYRPPRLPRPRPRPFKVPRP it is -0.123; for RRIRMRPPRLPRPRPRPCVLPRP it is -2.47e-05. With RRIRCRPPRLPRPRPRPQQTPRP, the “shrunken log2 fold change” value is -0.00158. The same measure for RRIRKRPPRLPRPRPRPTPKPRP: 0.334. The same measure for RRIRPRPPRLPRPRPRPRVNPRP: -0.194.

For RRIRERPPRLPRPRPRPKVLPRP, the “shrunken log2 fold change” value amounted to 0.0059. Consider RRIRLRPPRLPRPRPRPWVYPRP, for which the “shrunken log2 fold change” value stood at 0.0113. Regarding RRIRGRPPRLPRPRPRPWTWPRP, the “shrunken log2 fold change” value is 0.339. On to RRIRWRPPRLPRPRPRPGEQPRP, for which the “shrunken log2 fold change” value worked out at 0.0722. Consider RRIRQRPPRLPRPRPRPKFTPRP, for which the “shrunken log2 fold change” value turned out to be 0.025. Take RRIRTRPPRLPRPRPRPFEYPRP: the “shrunken log2 fold change” value was -0.0571. The same measure for RRIRYRPPRLPRPRPRPQPWPRP: -0.149.

Take RRIRKRPPRLPRPRPRPQQHPRP: the “shrunken log2 fold change” value was 0.138.

For the sequence RRIRCRPPRLPRPRPRPFKDPRP, the “shrunken log2 fold change” value is -0.54.

With RRIRLRPPRLPRPRPRPTHNPRP, the “shrunken log2 fold change” value was -0.0209. The same measure for RRIRGRPPRLPRPRPRPTPLPRP: 0.747. The same measure for RRIRTRPPRLPRPRPRPSTVPRP: 0.0213.

With RRIRFRPPRLPRPRPRPSCLPRP, the “shrunken log2 fold change” value was -0.502.
